Experimental data: US20150274826A1 (ARCH ONCOLOGY, published 2015)

T1: dog CD47 (dog, UniProt A0A8I3PM61 19-310)
T1 construct: also called CD47 on dog RBCs
T1 sequence: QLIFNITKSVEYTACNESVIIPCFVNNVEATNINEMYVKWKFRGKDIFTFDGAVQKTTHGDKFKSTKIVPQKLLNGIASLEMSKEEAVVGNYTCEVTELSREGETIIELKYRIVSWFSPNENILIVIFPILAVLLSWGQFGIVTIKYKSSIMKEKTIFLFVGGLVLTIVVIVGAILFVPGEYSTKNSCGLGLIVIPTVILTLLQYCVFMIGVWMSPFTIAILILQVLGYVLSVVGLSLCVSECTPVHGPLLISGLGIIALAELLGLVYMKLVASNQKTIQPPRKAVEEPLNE

T2: mouse CD47 (mouse, UniProt Q61735 19-303)
T2 construct: whole, on cells; also called CD47 on mouse RBCs; CD47 on 4T1 cells
T2 sequence (looked up): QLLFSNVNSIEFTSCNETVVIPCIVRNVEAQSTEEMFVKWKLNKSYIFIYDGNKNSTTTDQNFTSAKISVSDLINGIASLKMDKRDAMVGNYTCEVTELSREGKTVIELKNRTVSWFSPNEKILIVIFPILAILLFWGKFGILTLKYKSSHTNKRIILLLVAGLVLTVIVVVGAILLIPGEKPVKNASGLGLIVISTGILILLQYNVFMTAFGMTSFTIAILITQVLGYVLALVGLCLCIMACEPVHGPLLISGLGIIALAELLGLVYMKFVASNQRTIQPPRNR

T3: pig CD47 (pig, UniProt Q9GKE8 19-303)
T3 construct: whole, on cells; also called CD47 on porcine RBCs
T3 sequence (looked up): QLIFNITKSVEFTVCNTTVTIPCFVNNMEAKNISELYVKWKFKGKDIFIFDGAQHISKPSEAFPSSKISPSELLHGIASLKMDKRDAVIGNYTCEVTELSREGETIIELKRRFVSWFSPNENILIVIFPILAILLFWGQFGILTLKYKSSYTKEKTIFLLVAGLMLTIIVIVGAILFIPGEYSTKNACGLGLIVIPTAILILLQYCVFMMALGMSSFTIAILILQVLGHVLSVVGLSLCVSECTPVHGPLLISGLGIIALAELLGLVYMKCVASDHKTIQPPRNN

T4: rat CD47 (rat, UniProt P97829 19-303)
T4 construct: whole, on cells; also called CD47 on rat RBCs
T4 sequence (looked up): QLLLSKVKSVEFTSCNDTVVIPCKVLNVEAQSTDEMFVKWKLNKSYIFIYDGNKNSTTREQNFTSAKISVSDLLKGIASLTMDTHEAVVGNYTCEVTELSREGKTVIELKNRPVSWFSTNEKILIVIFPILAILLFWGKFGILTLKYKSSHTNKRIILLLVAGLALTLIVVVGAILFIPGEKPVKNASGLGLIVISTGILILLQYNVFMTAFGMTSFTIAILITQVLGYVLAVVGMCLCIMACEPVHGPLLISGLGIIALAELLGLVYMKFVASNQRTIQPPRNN


Tests used:
human CD47 [1] = biological target: T5, human CD47 (human, UniProt Q08722 19-323); assay: flow cytometry on human RBCs, non-linear fit of median fluorescence
T5 construct: whole, on cells; also called CD47 on human RBCs; CD47 on OV10 cells
T5 sequence (Q08722 19-323): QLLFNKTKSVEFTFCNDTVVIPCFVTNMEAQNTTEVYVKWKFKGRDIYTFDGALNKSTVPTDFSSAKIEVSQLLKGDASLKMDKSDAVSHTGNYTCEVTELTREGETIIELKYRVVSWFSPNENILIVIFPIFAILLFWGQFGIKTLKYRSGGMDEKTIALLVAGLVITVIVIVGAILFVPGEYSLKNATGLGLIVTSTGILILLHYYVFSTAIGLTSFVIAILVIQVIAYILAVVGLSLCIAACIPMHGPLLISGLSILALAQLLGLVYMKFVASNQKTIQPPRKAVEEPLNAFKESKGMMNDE
Experimental: (§1) RBCs are incubated for 60 minutes on ice with tissue culture supernatants containing the secreted humanized antibodies at a concentration of 10 ng/ml in a solution of phosphate buffered saline, pH 7.2, 2.5 mM EDTA (PBS+E), or with various concentrations of purified antibodies. Cells are then washed with cold PBS+E, and incubated for an additional hour on ice with FITC labeled donkey anti-human antibody (Jackson Immuno Research Labs, West Grove, Pa.; Catalogue #709-096-149) in PBS+E. Cells are then washed with PBS+E, and antibody binding is analyzed using a BD FACSAria Cell Sorter (Becton Dickinson) or a C6 Accuri Flow Cytometer (Becton Dickinson). Antibody binding is quantitated by comparison of mean fluorescence values relative to that of chimeric antibody >VxP037-01LC (SEQ ID NO:7))/>VxPO37-01HC (SEQ ID NO:57). The mean fluorescence value for each antibody is divided by the mean fluorescence value for the chimeric antibody.

human CD47 [2] = biological target: T5, human CD47; assay: flow cytometry on human RBCs, apparent Kd, non-linear fit
Experimental: as §1

dog CD47 = biological target: T1, dog CD47; assay: flow cytometry on RBCs, CHO supernatant 10 ng/ml
How it was run: (§2)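 RBCs incubated 60 min on ice with antibody supernatants at 10 ng/ml in PBS pH 7.2, 2.5 mM EDTA. Binding detected with FITC anti-human secondary (1 h, ice) by flow cytometry; fluorescence expressed relative to chimeric VxP037-01 reference.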

mouse CD47 [3] = biological target: T2, mouse CD47; assay: flow cytometry on RBCs, CHO supernatant 10 ng/ml
How it was run: as §2

pig CD47 = biological target: T3, pig CD47; assay: flow cytometry on RBCs, CHO supernatant 10 ng/ml
How it was run: as §2

rat CD47 = biological target: T4, rat CD47; assay: flow cytometry on RBCs, CHO supernatant 10 ng/ml
How it was run: as §2

human CD47 [4] = biological target: T5, human CD47; assay: flow cytometry on RBCs, CHO supernatant 10 ng/ml
How it was run: as §2

mouse CD47 [5] = biological target: T2, mouse CD47; assay: cell-based ELISA on mouse 4T1 cells, apparent Kd
Experimental: (§3) OV10 cells are grown in IMDM medium containing 10% heat inactivated fetal bovine serum (BioWest; S01520) and 4T1 cells are grown in RMPI medium containing 10% heat inactivated fetal bovine serum (BioWest; S01520). One day before assay, 3×10⁴ cells are plated in 96 well cell bind plates (Corning #3300, VWR #66025-626) so that they are 95-100% confluent at the time of assay. Cells are washed and various concentrations of purified antibodies added in either IMDM or RPMI at 37° C. for 1 hour in […]. Cells are then washed with media and incubated for an additional hour at 37° C. with HRP labeled secondary anti-human antibody (Promega) diluted 1/2500 in media. Cells are washed three times with PBS, and the peroxidase substrate 3,3′,5,5′-tetramethylbenzidine is added (Sigma; Catalog #T4444). Reactions are terminated by the addition of HCl to 0.7N, and absorbance at 450 nm is determined using a Tecan model Infinite M200 plate reader. The apparent binding affinities of these clones to human and mouse cells is determined by non-linear fits (Prism GraphPad software). […] Agglutination of human RBCs is assessed following incubation of human RBCs with various concentrations of humanized blocking only clones. Blood is diluted (1:50) and washed 3 times with PBS/EDTA/BSA. RBCs are added to U-bottomed 96 well plates with equal volumes of the antibodies (75 μl) and incubated for 3 hrs at 37° C. and overnight at 4° C.

human CD47 [6] = biological target: T5, human CD47; assay: cell-based ELISA on human OV10 cells, apparent Kd
Experimental: as §3

Kd (human CD47 [1]) [µg/mL]	Kd (human CD47 [2]) [nM]	mean fluorescence relative to chimeric antibody (dog CD47) [ratio]	mean fluorescence relative to chimeric antibody (mouse CD47 [3]) [ratio]	mean fluorescence relative to chimeric antibody (pig CD47) [ratio]	mean fluorescence relative to chimeric antibody (rat CD47) [ratio]	mean fluorescence relative to chimeric antibody (human CD47 [4]) [ratio]	Kd (mouse CD47 [5]) [nM]	Kd (human CD47 [6]) [nM]	Binder
0.226	1.51	1	1.7	1.3	2.7	1.1	–	–	Clone 1 (pVxK7b-037-hum01-LC / pVxK7b-037-hum01-HC) (antibody, human IgG1, kappa, also called Cl 1) heavy: not shown light: DIVMTQTPLSLPVTPGEPASISCRSSQSLVHSNGNTYLHWYQQKPGKAPKLLIYKVSYRFSGVPDRFSGSGSGTDFTLKISRVEAEDVGVYYCSQNTHVPRTFGQGTKVEIKRTVAAPSVFIFPPSDEQLKSGTASVVCLLNNFYPREAKVQWKVDNALQSGNSQESVTEQDSKDSTYSLSSTLTLSKADYEKHKVYACEVTHQGLSSPVTKSFNRGEC
–	–	–	–	–	–	–	0.237	0.121	Clone 20.1 (hum20 IgG1 N297Q) (antibody, IgG1 N297Q) heavy: QITLKESGPTLVKPTQTLTLTCTFSGYTFTNYYVFWVRQAPGQGLEWMGDINPVNGDTNFNEKFKNRVTITADKSTSTAYMELSSLRSEDTAVYYCARGGYTMDYWGQGTLVTVSSASTKGPSVFPLAPSSKSTSGGTAALGCLVKDYFPEPVTVSWNSGALTSGVHTFPAVLQSSGLYSLSSVVTVPSSSLGTQTYICNVNHKPSNTKVDKKVEPKSCDKTHTCPPCPAPELLGGPSVFLFPPKPKDTLMISRTPEVTCVVVDVSHEDPEVKFNWYVDGVEVHNAKTKPREEQYQSTYRVVSVLTVLHQDWLNGKEYKCKVSNKALPAPIEKTISKAKGQPREPQVYTLPPSR light: DIVMTQTPLSLPVTPGEPASISCRSSQSLVHSNGNTYLHWYLQKPGQSPQLLIYKVSYRFSGVPDRFSGSGSGTDFTLKISRVEAEDVGVYYCSQNTHVPRTFGQGTKVEIKRTVAAPSVFIFPPSDEQLKSGTASVVCLLNNFYPREAKVQWKVDNALQSGNSQESVTEQDSKDSTYSLSSTLTLSKADYEKHKVYACEVTHQGLSSPVTKSFNRGEC
–	–	–	–	–	–	–	0.354	0.114	Clone 20.2 (hum20 IgG4 S228P L235E) (antibody, IgG4 S228P L235E) heavy: not shown light: DIVMTQTPLSLPVTPGEPASISCRSSQSLVHSNGNTYLHWYLQKPGQSPQLLIYKVSYRFSGVPDRFSGSGSGTDFTLKISRVEAEDVGVYYCSQNTHVPRTFGQGTKVEIKRTVAAPSVFIFPPSDEQLKSGTASVVCLLNNFYPREAKVQWKVDNALQSGNSQESVTEQDSKDSTYSLSSTLTLSKADYEKHKVYACEVTHQGLSSPVTKSFNRGEC
–	–	–	–	–	–	–	0.192	0.195	Clone 23.2 (hum23 IgG4 S228P L235E) (antibody, IgG4 S228P L235E) heavy: not shown light: DIVMTQTPLSLPVTPGEPASISCRSSQSLVHSNGNTYLHWYQQKPGKAPKLLIYKVSYRFSGVPDRFSGSGSGTDFTLKISRVEAEDVGVYYCSQNTHVPRTFGQGTKVEIKRTVAAPSVFIFPPSDEQLKSGTASVVCLLNNFYPREAKVQWKVDNALQSGNSQESVTEQDSKDSTYSLSSTLTLSKADYEKHKVYACEVTHQGLSSPVTKSFNRGEC
–	–	–	–	–	–	–	0.0922	0.0996	Clone 23.1 (hum23 IgG1 N297Q) (antibody, IgG1 N297Q) heavy: QVQLQESGPGLVKPSQTLSLTCTVSGYTFTNYYVFWVRQARGQRLEWIGDINPVNGDTNFNEKFKNRLTISKDTSKNQVVLTMTNMDPVDTATYYCARGGYTMDYWGQGTLVTVSSASTKGPSVFPLAPSSKSTSGGTAALGCLVKDYFPEPVTVSWNSGALTSGVHTFPAVLQSSGLYSLSSVVTVPSSSLGTQTYICNVNHKPSNTKVDKKVEPKSCDKTHTCPPCPAPELLGGPSVFLFPPKPKDTLMISRTPEVTCVVVDVSHEDPEVKFNWYVDGVEVHNAKTKPREEQYQSTYRVVSVLTVLHQDWLNGKEYKCKVSNKALPAPIEKTISKAKGQPREPQVYTLPPSR light: DIVMTQTPLSLPVTPGEPASISCRSSQSLVHSNGNTYLHWYQQKPGKAPKLLIYKVSYRFSGVPDRFSGSGSGTDFTLKISRVEAEDVGVYYCSQNTHVPRTFGQGTKVEIKRTVAAPSVFIFPPSDEQLKSGTASVVCLLNNFYPREAKVQWKVDNALQSGNSQESVTEQDSKDSTYSLSSTLTLSKADYEKHKVYACEVTHQGLSSPVTKSFNRGEC
0.0864	0.58	1	1.3	1.4	3.1	1.2	–	–	Clone 13 (pVxK7b-037-hum13-LC / pVxK7b-037-hum13-HC) (antibody, human IgG1, kappa, also called Cl 13) heavy: not shown light: DIVMTQTPLSLPVTPGEPASISCRSSQSLVHSNGNTYLHWYQQKPGKAPKLLIYKVSYRFSGVPDRFSGSGSGTDFTLKISRVEAEDVGVYYCSQNTHVPRTFGQGTKVEIKRTVAAPSVFIFPPSDEQLKSGTASVVCLLNNFYPREAKVQWKVDNALQSGNSQESVTEQDSKDSTYSLSSTLTLSKADYEKHKVYACEVTHQGLSSPVTKSFNRGEC
–	–	–	–	–	–	–	0.147	0.121	Clone 17.2 (hum17 IgG4 S228P L235E) (antibody, IgG4 S228P L235E) heavy: not shown light: AIQLTQSPSSLSASVGDRVTITCRSSQSLVHSNGNTYLHWYQQKPGQAPRLLIYKVSYRFSGVPDRFSGSGSGTDFTLKISRVEAEDVGVYYCSQNTHVPRTFGQGTKVEIKRTVAAPSVFIFPPSDEQLKSGTASVVCLLNNFYPREAKVQWKVDNALQSGNSQESVTEQDSKDSTYSLSSTLTLSKADYEKHKVYACEVTHQGLSSPVTKSFNRGEC
